One may read the Kd as the concentration at which binding is half-saturated.

Consider 2 sequences from paper PMC2940738.

For this series, the target named is T1, ETS-4 (Caenorhabditis elegans) (UniProt A8WFJ9).
T1 sequence: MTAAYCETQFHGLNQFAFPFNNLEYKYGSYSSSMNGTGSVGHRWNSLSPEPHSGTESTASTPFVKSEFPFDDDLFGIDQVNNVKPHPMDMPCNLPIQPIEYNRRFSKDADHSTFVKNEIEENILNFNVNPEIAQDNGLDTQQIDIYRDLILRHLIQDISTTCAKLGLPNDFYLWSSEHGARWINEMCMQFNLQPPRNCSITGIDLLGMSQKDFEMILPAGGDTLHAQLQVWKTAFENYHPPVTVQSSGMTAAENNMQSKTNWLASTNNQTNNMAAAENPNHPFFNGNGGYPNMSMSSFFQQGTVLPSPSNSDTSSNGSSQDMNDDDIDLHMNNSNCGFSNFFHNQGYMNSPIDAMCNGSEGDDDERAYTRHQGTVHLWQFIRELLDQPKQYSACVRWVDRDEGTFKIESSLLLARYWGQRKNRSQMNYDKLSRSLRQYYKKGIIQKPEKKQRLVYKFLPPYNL
Description: EMSA. The note with it: 25 mM Tris-Cl pH 7.9, 10% glycerol, 0.1 mM EDTA, 60 mM KCl, 6 mM MgCl2, 0.2 mg/ml BSA, 10 mM DTT, 50 ng poly[d(I-C)] in 20 ul, 1 h at 4 C; 6% native PAGE at …. Background: A gel shift assay detects complexes by their altered migration in electrophoresis.

In turn, “TCGACGGCCAAGCCGGATGTGAGTGCC (double strand) [ETS Site-WT (GGAT)]” displayed a Kd of 1 nM.

Take “TCGACGGCCAAGCCGGAAGTGAGTGCC (double strand) [ETS Site-WT (GGAA)]”: the dissociation constant Kd was found to be 1 nM.
